The text below walks through data of PMC9318647, “Human and Bacterial Toll-Interleukin Receptor Domains Exhibit Distinct Dynamic Features and Functions” (Molecules, 2022).

Broadly, the stoichiometry N is the number of molecules, sites or subunits per partner or assembly. As usually defined, the Kd is the equilibrium constant for the complex coming apart.

B1: human TLR1 TIR domain (TLR1-TIR), residues 625-786, untagged (domain or fragment, UniProt Q15399 625-786, looked up)
chain: NIPLEELQRNLQFHAFISYSGHDSFWVKNELLPNLEKEGMQICLHERNFVPGKSIVENIITCIEKSYKSIFVLSPNFVQSEWCHYELYFAHHNLFHEGSNSLILILLEPIPQYSIPSSYHKLKSLMARRTYLEWPKEKSKRGLFWANLRAAINIKLTEQAKK
notes: human TLR1, NCBI NP_003254.2, the entire intracellular TIR region of residues 625-786; Elutes as distinct dimer and monomer peaks on Superose-12; also called untagged TLR1-TIR
B2: human TLR2 TIR domain (TLR2-TIR), residues 633-784, untagged (domain or fragment, UniProt O60603 633-784, looked up)
chain: KAPSRNICYDAFVSYSERDAYWVENLMVQELENFNPPFKLCLHKRDFIPGKWIIDNIIDSIEKSHKTVFVLSENFVKSEWCKYELDFSHFRLFDENNDAAILILLEPIEKKAIPQRFCKLRKIMNTKTYLEWPMDEAQREGFWVNLRAAIKS
notes: human TLR2, NCBI NP_001305716.1, the entire intracellular TIR region of residues 633-784; 15N-labelled in the NMR experiments; Elutes as distinct dimer and monomer peaks on Superose-12; also called 15N-TLR2-TIR
B3: Staphylococcus aureus TIR protein (tirS), full length (natural protein)
chain: MSVLETKLKSQMSKSAKIARNMNKLPDEIDRLRKRIERINKKRKPTSSNIRDLEKSNKQLVTKQQKLADLQVEYTKIEKKINETKINLQKEQSRNQKKLSSMLDKNTKGNEEIMEKLLTNSDQINEISNQIKKAVNQKEIIEYDVFLSHSSLDKEDYVSKISEKLIEKGLKVFEDVKVFEIGKSQTETMNMGILNSRFVVVFLSPNFIESGWSRYEFLSFLNREINEEHVIILPIWHKVSVEDVRAYNPYLVDKYALNTSDFSIEEIVEKIYQVIVNSKN
notes: Staphylococcus aureus TIR protein (tirS), NCBI WP_000114516.1, full length (CC domain and TIR domain); also called full-length tirS

The target in data set [1] is Acinetobacter junii TIR protein (tirA), full length (Acinetobacter junii). In words: SEC; analytical sizing of the full-length bacterial TIR-containing proteins, their CC domains and TIR constructs; sample loads 200 μM, except tirS-TIR E216A 20 μM and tirA-TIR E206A 50 μM. A general note: Size exclusion chromatography separates by hydrodynamic size, large species first.

In data set [2] the target is Enterococcus TIR protein (tirE), full length (Enterococcus). The data set is described as above.
Data set [3] deals with tirA coil-coil (CC) domain (Acinetobacter junii). The data set is described as above.
The target of data set [4] is tirE coil-coil (CC) domain (Enterococcus). The data set is described as above.
Data set [5] addresses tirS coil-coil (CC) domain (Staphylococcus aureus). The description is as above.
Data set [6] deals with the molecule itself. In words: SEC; analytical Superose-12; 50 mM Na2HPO4, pH 6.5, 150 mM NaCl, 1 mM DTT; TLR1-TIR and TLR2-TIR also after 30 min in 50 mM DTT (homodimers minimized).
The target of data set [7] is human TLR2 TIR domain (TLR2-TIR), residues 633-784, untagged (human) (UniProt O60603). The description is as above.
In data set [8] the target is B1. In words: NMR titration; 15N-TLR2-TIR at 308 μM, unlabeled partner added (TLR1-TIR 308, 616, 924 μM; full-length tirA 308 μM); 15N-HSQC; global fit of several resonances. The conditions noted are these: both partners purified.
Data set [9] deals with the molecule itself. Nature of the data set: SEC; analytical sizing of the full-length bacterial TIR-containing proteins, their CC domains and TIR constructs; sample loads 200 μM, except tirS-TIR E216A 20 μM and tirA-TIR E206A 50 μM.

Turning to “Acinetobacter junii TIR protein (tirA), full length (natural protein)”, the stoichiometry N in data set [1] was 2.

In the case of “Enterococcus TIR protein (tirE), full length (natural protein)”, the stoichiometry N in data set [2] turned out to be 2.

For “tirA coil-coil (CC) domain (domain or fragment)”, in [3], the stoichiometry N came to 2.

Molecule “tirE coil-coil (CC) domain (domain or fragment)” registered a stoichiometry N in data set [4] of 2.

On to “tirS coil-coil (CC) domain (domain or fragment)”, for which, in data set [5], the stoichiometry N was determined as 2.

As for B1, the “stoichiometry N” value in [6] was 2.

As for B2, in [7], the stoichiometry N was 2. In data set [8], this molecule yielded a Kd of 760 ± 230 µM.

B3: in data set [9], the “stoichiometry N” value is 2.
